The record followed here is the Human Domainome abundance scans (Beltran et al. 2025).

± gives the uncertainty stated by the source.

First the molecules themselves.
B1: Far upstream element-binding protein 1, residues 184 to 257; numbered along this chain, Q96AE4 (parent)
chain: GNAVQEIMIPASKAGLVIGKGGETIKQLQERAGVKMVMIQDGPQNTGADKPLRITGDPYKVQQAKEMVLELIRD

This data set covers variants of B1. Description: abundance fitness (aPCA) (normalised: wild type 0, dead -1); higher = more abundant; growth selection in yeast, the domain comes from the species named. The following applies: Homo sapiens.
Regarding GNAVQEIMIPASKAGLVIGKGGETIKQLQERAGYKMVMIQDGPQNTGADKPLRITGDPYKVQQAKEMVLELIRD [V34Y], the abundance fitness was -1.11 ± 0.12.

For the variant GNAVQEIMIPASKAGLVIGKGGETIKQLQERAGPKMVMIQDGPQNTGADKPLRITGDPYKVQQAKEMVLELIRD [V34P], the abundance fitness was -0.918 ± 0.065. Then GNAVQEIMIPASKAGLVIGKGGETIKQLQERAGMKMVMIQDGPQNTGADKPLRITGDPYKVQQAKEMVLELIRD [V34M], with -0.808 ± 0.059. Under GNAVQEIMIPASKAGLVIGKGGETIKQLQERAGAKMVMIQDGPQNTGADKPLRITGDPYKVQQAKEMVLELIRD [V34A] stands -0.153 ± 0.033; under GNAVQEIMIPASKAGLVIGKGGETIKQLQERAGNKMVMIQDGPQNTGADKPLRITGDPYKVQQAKEMVLELIRD [V34N], -0.68 ± 0.087; under GNAVQEIMIPASKAGLVIGKGGETIKQLQERAGHKMVMIQDGPQNTGADKPLRITGDPYKVQQAKEMVLELIRD [V34H], -0.87 ± 0.096.

For GNAVQEIMIPASKAGLVIGKGGETIKQLQERAGGKMVMIQDGPQNTGADKPLRITGDPYKVQQAKEMVLELIRD [V34G], the abundance fitness is -0.767 ± 0.033. Under GNAVQEIMIPASKAGLVIGKGGETIKQLQERAGSKMVMIQDGPQNTGADKPLRITGDPYKVQQAKEMVLELIRD [V34S] stands -0.639 ± 0.041; under GNAVQEIMIPASKAGLVIGKGGETIKQLQERAGLKMVMIQDGPQNTGADKPLRITGDPYKVQQAKEMVLELIRD [V34L], -0.567 ± 0.036. Then GNAVQEIMIPASKAGLVIGKGGETIKQLQERAGFKMVMIQDGPQNTGADKPLRITGDPYKVQQAKEMVLELIRD [V34F], with -1.35 ± 0.15; and GNAVQEIMIPASKAGLVIGKGGETIKQLQERAGEKMVMIQDGPQNTGADKPLRITGDPYKVQQAKEMVLELIRD [V34E], with -0.753 ± 0.046. Then GNAVQEIMIPASKAGLVIGKGGETIKQLQERAGIKMVMIQDGPQNTGADKPLRITGDPYKVQQAKEMVLELIRD [V34I], with -0.432 ± 0.061. Take GNAVQEIMIPASKAGLVIGKGGETIKQLQERAGKKMVMIQDGPQNTGADKPLRITGDPYKVQQAKEMVLELIRD [V34K]: the abundance fitness was -0.946 ± 0.074. Under GNAVQEIMIPASKAGLVIGKGGETIKQLQERAGTKMVMIQDGPQNTGADKPLRITGDPYKVQQAKEMVLELIRD [V34T] stands -0.232 ± 0.04; under GNAVQEIMIPASKAGLVIGKGGETIKQLQERAGRKMVMIQDGPQNTGADKPLRITGDPYKVQQAKEMVLELIRD [V34R], -0.974 ± 0.04. As for GNAVQEIMIPASKAGLVIGKGGETIKQLQERAGWKMVMIQDGPQNTGADKPLRITGDPYKVQQAKEMVLELIRD [V34W], the abundance fitness is -1.35 ± 0.086. Under GNAVQEIMIPASKAGLVIGKGGETIKQLQERAGCKMVMIQDGPQNTGADKPLRITGDPYKVQQAKEMVLELIRD [V34C] stands -0.086 ± 0.043.

Turning to GNAVQEIMIPASKAGLVIGKGGETIKQLQERAGQKMVMIQDGPQNTGADKPLRITGDPYKVQQAKEMVLELIRD [V34Q], the abundance fitness was -0.833 ± 0.063. Under GNAVQEIMIPASKAGLVIGKGGETIKQLQERAGDKMVMIQDGPQNTGADKPLRITGDPYKVQQAKEMVLELIRD [V34D] stands -0.807 ± 0.067; under GNAVQEIMIPASKAGLVIGKGGETIKQLQERAGVKAVMIQDGPQNTGADKPLRITGDPYKVQQAKEMVLELIRD [M36A], -0.194 ± 0.032. Then GNAVQEIMIPASKAGLVIGKGGETIKQLQERALVKMVMIQDGPQNTGADKPLRITGDPYKVQQAKEMVLELIRD [G33L], with -0.354 ± 0.032; and GNAVQEIMIPASKAGLVIGKGGETIKQLQERAIVKMVMIQDGPQNTGADKPLRITGDPYKVQQAKEMVLELIRD [G33I], with -1.12 ± 0.22.

For GNAVQEIMIPASKAGLVIGKGGETIKQLQERAVVKMVMIQDGPQNTGADKPLRITGDPYKVQQAKEMVLELIRD [G33V], the abundance fitness is -0.596 ± 0.035. Regarding GNAVQEIMIPASKAGLVIGKGGETIKQLQERAPVKMVMIQDGPQNTGADKPLRITGDPYKVQQAKEMVLELIRD [G33P], the abundance fitness was -0.801 ± 0.058. Then GNAVQEIMIPASKAGLVIGKGGETIKQLQERANVKMVMIQDGPQNTGADKPLRITGDPYKVQQAKEMVLELIRD [G33N], with -0.063 ± 0.046. Then GNAVQEIMIPASKAGLVIGKGGETIKQLQERAKVKMVMIQDGPQNTGADKPLRITGDPYKVQQAKEMVLELIRD [G33K], with -0.097 ± 0.036; and GNAVQEIMIPASKAGLVIGKGGETIKQLQERAMVKMVMIQDGPQNTGADKPLRITGDPYKVQQAKEMVLELIRD [G33M], with -0.137 ± 0.041; and GNAVQEIMIPASKAGLVIGKGGETIKQLQERAQVKMVMIQDGPQNTGADKPLRITGDPYKVQQAKEMVLELIRD [G33Q], with -0.057 ± 0.042. Then GNAVQEIMIPASKAGLVIGKGGETIKQLQERAEVKMVMIQDGPQNTGADKPLRITGDPYKVQQAKEMVLELIRD [G33E], with -0.081 ± 0.034. On to GNAVQEIMIPASKAGLVIGKGGETIKQLQERAYVKMVMIQDGPQNTGADKPLRITGDPYKVQQAKEMVLELIRD [G33Y], for which the abundance fitness is -0.534 ± 0.063. Under GNAVQEIMIPASKAGLVIGKGGETIKQLQERASVKMVMIQDGPQNTGADKPLRITGDPYKVQQAKEMVLELIRD [G33S] stands -0.123 ± 0.032; under GNAVQEIMIPASKAGLVIGKGGETIKQLQERAFVKMVMIQDGPQNTGADKPLRITGDPYKVQQAKEMVLELIRD [G33F], -0.43 ± 0.052; under GNAVQEIMIPASKAGLVIGKGGETIKQLQERADVKMVMIQDGPQNTGADKPLRITGDPYKVQQAKEMVLELIRD [G33D], -0.083 ± 0.044. Under GNAVQEIMIPASKAGLVIGKGGETIKQLQERAHVKMVMIQDGPQNTGADKPLRITGDPYKVQQAKEMVLELIRD [G33H] stands -0.1 ± 0.058. Then GNAVQEIMIPASKAGLVIGKGGETIKQLQERATVKMVMIQDGPQNTGADKPLRITGDPYKVQQAKEMVLELIRD [G33T], with -0.29 ± 0.039; and GNAVQEIMIPASKAGLVIGKGGETIKQLQERACVKMVMIQDGPQNTGADKPLRITGDPYKVQQAKEMVLELIRD [G33C], with -0.125 ± 0.042. Turning to GNAVQEIMIPASKAGLVIGKGGETIKQLQERAAVKMVMIQDGPQNTGADKPLRITGDPYKVQQAKEMVLELIRD [G33A], the abundance fitness is -0.171 ± 0.032.
